Test results from the supplement of paper PMC10724198.
± gives the standard deviation of the averaged measurements.

Tested on: Saccharomyces cerevisiae
Test: protein stability index of tFT-peptide fusion (C-terminal peptide) (PSI (0-1 scale)); higher = more stable (slower turnover)
Conditions: genetic background: wild type; temperature: 30 C
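Further: PSI is a weighted mean of sequencing reads over stability bins, variants kept only with over 10 reads, mCherry proximal and sfGFP distal, peptide attached via GGGS linker.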

In order of falling protein stability index:
1. STSSNGVGLPRL  0.901 ± 0.11
2. SPSSPPPPPPPA  0.833 ± 0.033
3. SRSWLPPVFPRV  0.807 ± 0.059
4. SYHRAAPFQSCD  0.8 ± 0.12
5. SSSAPLPPSLPL  0.791 ± 0.16
6. TIGPSYLLPDSF  0.784 ± 0.018
7. TICRKPTLMSPQ  0.775 ± 0.061
8. SSSEGNRGSLQY  0.774 ± 0.041
9. SWFVGFDGAVGG  0.774 ± 0.088
10. TLPPSPTPPLYP  0.773 ± 0.031
11. SSCRHYRSPINH  0.764 ± 0.069
12. TNKKQIEPSKIR  0.763 ± 0.086
13. SRFSRLHPAFPV  0.759 ± 0.014
14. SRFAAGSRVLFL  0.758 ± 0.044
15. SRHFPLGTVHVP  0.756 ± 0.065
16. SPTRFLPVPTPF  0.75 ± 0.052
17. SSSPPPPPPSPS  0.75 ± 0.12
18. SRGLPRLLCPPP  0.747 ± 0.025
19. TARGAAARSSQL  0.747 ± 0.071
20. SSGSLITIASPF  0.745 ± 0.024
21. TNKNNKKKKEKI  0.743 ± 0.049
22. TKRGQMLYQDKE  0.741 ± 0.1
23. TNATENKNRHPN  0.741 ± 0.068
24. SSLNLLIHTAPL  0.739 ± 0.023
25. SSVNRPTSWTKA  0.739 ± 0.024
26. SVSEIGYEIRSL  0.739 ± 0.068
27. SWPIWGSCGWRR  0.739 ± 0.11
28. TLFQGHQLFKSR  0.737 ± 0.0068
29. SVFGCLPFDLMV  0.735 ± 0.0088
30. TEKRMIINIKIK  0.735 ± 0.03
31. THPRPTLTRCST  0.734 ± 0.081
32. TLWLSGGGGMVI  0.731 ± 0.04
33. SRGWCGRVVWGK  0.729 ± 0.01
34. SPVRRGRCRLSG  0.728 ± 0.1
35. STRPPVRYHGAS  0.728 ± 0.066
36. SVGLQLAFSAAV  0.728 ± 0.061
37. SSRGVTRRRLRE  0.724 ± 0.15
38. SQFGLGCCQRST  0.723 ± 0.069
39. STPPGTPGISRQ  0.723 ± 0.079
40. SRGRSFFAGVGG  0.722 ± 0.042
41. SRKIRTTLQESK  0.7219 ± 0.0071
42. SRSGASLRAARG  0.722 ± 0.043
43. SSPPRSLLSKSF  0.722 ± 0.017
44. STELQKMPQIEY  0.722 ± 0.11
45. SPVPRPGTTRRP  0.721 ± 0.031
46. SVSDPLPPRQTV  0.721 ± 0.057
47. SRAPRDVFSPPM  0.72 ± 0.019
48. SRRVSVSTSWNP  0.718 ± 0.014
49. SRSCRHGELKFA  0.718 ± 0.0097
50. SRYERLFSDNRG  0.718 ± 0.019
51. SWALELARPGEG  0.718 ± 0.013
52. TCLGYKLHPARG  0.718 ± 0.031
53. TDWLMQRILRPF  0.718 ± 0.028
54. TLNSSPFTTPTI  0.717 ± 0.074
55. SSPLPLPLHPPP  0.7146 ± 0.0062
56. TERPPRRPKSQG  0.715 ± 0.038
57. SRLGVGGGLCSW  0.714 ± 0.11
58. SVPPTCLHDAHF  0.713 ± 0.053
59. SSPSPSPPHLHP  0.712 ± 0.02
60. STRRTSKCHQGI  0.711 ± 0.019
61. SSLLSPLRSAFL  0.71 ± 0.066
62. SVCFPPCSSLPP  0.71 ± 0.19
63. SRSCCPGVRVRF  0.709 ± 0.03
64. SRSGVSTRGVPC  0.709 ± 0.0073
65. SSDLSNVQTQRL  0.708 ± 0.065
66. SWGGELGATSGG  0.708 ± 0.024
67. TFSPRLRPPPPP  0.7078 ± 0.0041
68. SRWFEFSFLSQV  0.707 ± 0.049
69. STVHLPAPAWGS  0.707 ± 0.033
70. SRPRLSDLFPPP  0.706 ± 0.11
71. SSALSLVSSFLP  0.705 ± 0.05
72. STSAPPRVPTPR  0.704 ± 0.078
73. SSRSMKKKKVKI  0.7034 ± 0.0027
74. STPDRFVSRGRQ  0.702 ± 0.043
75. SVVGNYHQTEPV  0.702 ± 0.059
76. SWGRYSYIEVMR  0.7022 ± 0.0057
77. SYGPSGEFSFSF  0.702 ± 0.0075
78. TLPSPPPRPPPA  0.702 ± 0.061
79. SRVTVLGGWRRG  0.701 ± 0.034
80. SVGKRRGVGVWN  0.7007 ± 0.0031
81. SYGDPSTTRLSP  0.701 ± 0.063
82. SRLKAPADTDPN  0.7 ± 0.015
83. SRTLLRVSHLSL  0.699 ± 0.02
84. THPTCPLHLLPT  0.699 ± 0.039
85. SSLSFAPAPPFV  0.698 ± 0.035
86. SVPTPSSNPRVK  0.698 ± 0.05
87. SYTLSGYGSRDN  0.698 ± 0.018
88. SVFSPSTALLYP  0.697 ± 0.02
89. TLPSHPRLLSLH  0.6965 ± 0.0013
90. SRASPPCSLLSS  0.696 ± 0.051
91. TKRQKQKKKNKE  0.696 ± 0.071
92. STPSPLTLPPLP  0.695 ± 0.024
93. TISHYSLAPTQI  0.695 ± 0.02
94. SSLMGGLSAYPG  0.694 ± 0.011
95. SSASLIPPPPVP  0.693 ± 0.053
96. SVRGMFPSAGVS  0.6934 ± 0.00093
97. TLSSSPRPLPVP  0.692 ± 0.051
98. SRVTGPGRADGT  0.691 ± 0.011
99. SSPSALSLLLSV  0.6876 ± 0.0049
100. TFSFSRPPLPPA  0.6853 ± 0.0066
101. SRCRASMPPLRA  0.684 ± 0.034
102. SWGGLGSFCRVI  0.684 ± 0.014
103. TAAHRASGEIAC  0.684 ± 0.062
104. TLQRARTGSTPK  0.684 ± 0.055
105. SVGGLAALLCGL  0.682 ± 0.037
106. SVGGSLGAGGGG  0.682 ± 0.064
107. TEGGKIEGGGRK  0.682 ± 0.087
108. THTPPPHRPSNR  0.682 ± 0.22
109. SSALPPLLAFFL  0.6808 ± 0.0046
110. TKKSKRKREQAE  0.68 ± 0.026
111. SPTAPPPRPFPP  0.679 ± 0.042
112. SPTPPRMPLSLP  0.677 ± 0.024
113. SRETRRRENPAK  0.677 ± 0.19
114. SVTLVPPPLPFP  0.677 ± 0.054
115. SYPLSRPCSPCD  0.677 ± 0.068
116. SSLDTPSFDSSL  0.675 ± 0.018
117. SVSLSLLFFLPF  0.675 ± 0.025
118. SSFFTTGAPRPP  0.674 ± 0.061
119. TNQRKKTVAGEK  0.672 ± 0.025
120. SRMRRGCTGCEC  0.671 ± 0.061
121. TAAEECIGRAIG  0.671 ± 0.04
122. TAKVYEKEGGEE  0.671 ± 0.019
123. TGSGQVSREERS  0.671 ± 0.036
124. SSWRVPLSVLPI  0.67 ± 0.014
125. STKQTTTTERAI  0.67 ± 0.013
126. SRERRPKVFILR  0.669 ± 0.027
127. TEINEAQNIPEK  0.6688 ± 0.0027
128. TLTVCVNQGMTM  0.668 ± 0.024
129. SSHHYSCPLVDT  0.667 ± 0.058
130. TIRKNKTDVISK  0.667 ± 0.017
131. TCFYYVGGEKCM  0.665 ± 0.0077
132. TDHTNCARDLGA  0.664 ± 0.054
133. TINSHNYKTKTP  0.664 ± 0.021
134. STPVKLPTSSLP  0.663 ± 0.051
135. SPSTRWPTVQTR  0.662 ± 0.0098
136. SQGSTLRGIEEP  0.661 ± 0.048
137. SRGLVRGPMSGR  0.661 ± 0.053
138. SSRPLISTLTPY  0.661 ± 0.014
139. SSHHGSSEDDHQ  0.6597 ± 0.001
140. SPTSTILKSYTR  0.659 ± 0.086
141. SRPPLLLLSSGA  0.6583 ± 0.0059
142. SVRDRCKENERF  0.658 ± 0.043
143. TDSRPKVGKRGN  0.6583 ± 0.0025
144. TIVFLLPSPRSY  0.657 ± 0.0094
145. SPVQHPKHIQPG  0.656 ± 0.008
146. SRVAEIERVQWL  0.655 ± 0.038
147. TKTIKPNKKATV  0.655 ± 0.03
148. TIPPSTRAITPV  0.652 ± 0.046
149. SRGVSRGGGEVF  0.651 ± 0.027
150. TGIGCRFIWCSK  0.65 ± 0.037
151. TKRIKEERTKKC  0.65 ± 0.025
152. SRVQYVLDRSVF  0.649 ± 0.0099
153. SSQVELPVSVVW  0.649 ± 0.058
154. SWFLLEVLSDFK  0.649 ± 0.014
155. TGPGCWVCCVGE  0.648 ± 0.048
156. SVAGGGSACRGC  0.646 ± 0.039
157. TFLGEAGSVGVT  0.646 ± 0.03
158. SVPPCSLPPLPP  0.6407 ± 0.0048
159. SSPHRFLCLPPP  0.639 ± 0.061
160. TAPPSISYVQAF  0.639 ± 0.021
161. THSQPPQYSRVP  0.638 ± 0.071
162. TFVSPPPHPLRP  0.636 ± 0.055
163. TLTVRASLHLEP  0.636 ± 0.025
164. TLVPPPSPPPSP  0.636 ± 0.065
165. SYFVSGADSLIL  0.635 ± 0.017
166. SSTALVFRLICL  0.63 ± 0.016
167. TLRVNAMFVEAM  0.63 ± 0.014
168. TNGHIVRLGRRV  0.63 ± 0.011
169. SVGLPPPPPFPP  0.629 ± 0.017
170. SVYTTGHTHTGR  0.626 ± 0.17
171. TICVILNGVGYS  0.625 ± 0.11
172. SVQIKKIRRKNN  0.6227 ± 0.0037
173. TFTESRLRMRLG  0.623 ± 0.086
174. SYRGIGVGLCAG  0.622 ± 0.016
175. TAHHTRPQYLPL  0.622 ± 0.022
176. SSPEYIRNIQRS  0.62 ± 0.029
177. TAGVQSGCTRII  0.618 ± 0.052
178. SSIHSLRQVISI  0.614 ± 0.051
179. SVAWPRLLSISP  0.612 ± 0.0089
180. STPPLSLRPLLR  0.608 ± 0.055
181. TGLRLFGVLSLI  0.607 ± 0.016
182. TLLTIALLTGNL  0.606 ± 0.063
183. SVPSAWCWVSSS  0.6 ± 0.038
184. STPSPSPTGLSR  0.597 ± 0.065
185. SWSLIFFGYFPF  0.591 ± 0.029
186. TASRSSRADERA  0.591 ± 0.033
187. STQELHYCFVCL  0.59 ± 0.022
188. SRAARLLPKLLI  0.589 ± 0.055
189. TLPFLYILDFFF  0.589 ± 0.0081
190. SSRVSLSTVCLL  0.585 ± 0.019
191. TGVRSAEAKRKQ  0.579 ± 0.05
192. TCVASLSVLCLL  0.574 ± 0.048
193. SSGRRFVVVVQG  0.572 ± 0.026
194. SWKFAFWCFLGR  0.5675 ± 0.0056
195. SVLALKGFCWLG  0.562 ± 0.042
196. SQGAGKCIIIAA  0.561 ± 0.015
197. TITRIAFRFCYS  0.556 ± 0.032
198. SRHRVGLPIQIF  0.526 ± 0.022
199. SRLSPPFPLFSL  0.505 ± 0.036
200. SSGFVWVGVCVG  0.5 ± 0.0069
201. SSPGFCRVFVFF  0.491 ± 0.018
202. TLFLFVSSFCMG  0.47 ± 0.067
